Target: the molecule itself
Experiment: negative-stain transmission electron microscopy

B1: light-dependent protochlorophyllide oxidoreductase (LPOR) isoform AtPORB (enzyme, Arabidopsis thaliana)
chain: QTAATSSPTVTKSVDGKKTLRKGNVVVTGASSGLGLATAKALAETGKWNVIMACRDFLKAERAAKSVGMPKDSYTVMHLDLASLDSVRQFVDNFRRTETPLDVLVCNAAVYFPTAKEPTYSAEGFELSVATNHLGHFLLARLLLDDLKKSDYPSKRLIIVGSITGNTNTLAGNVPPKANLGDLRGLAGGLNGLNSSAMIDGGDFDGAKAYKDSKVCNMLTMQEFHRRFHEETGVTFASLYPGCIASTGLFREHIPLFRALFPPFQKYITKGYVSETESGKRLAQVVSDPSLTKSGVYWSWNNASASFENQLSEEASDVEKARKVWEISEKLVGLA
binding result: binds

— publication doi:10.1101/2024.10.21.619389 (bioRxiv, 2024)
